Assay results: publication PMC8093518, “PprA Protein Inhibits DNA Strand Exchange and ATP Hydrolysis of Deinococcus RecA and Regulates the Recombination in Gamma-Irradiated Cells” (Frontiers in Cell and Developmental Biology, 2021)

What was measured:
[1] = molecular target: T1, Recombinant DrRecA, purified (D. radiodurans, UniProt P42443 1-363); assay: cross-linking; both proteins (approx. 5 μg each) mixed in HEPES buffer pH 7.6 for 10 min, 0.5% glutaraldehyde for 10 min, SDS-PAGE; with or without 1 kb dsDNA, DNase treatment; details: both partners purified
T1 construct: RecA of Deinococcus radiodurans, from plasmid pETrecA constructed earlier (Rajpurohit et al., 2016); His tag removed with Factor-Xa; also called pETrecA; source: E. coli BL21(DE3) pLysS, purified (Ni-chelating Sepharose, Q-sepharose, Heparin, Superdex-200)
T1 sequence (looked up): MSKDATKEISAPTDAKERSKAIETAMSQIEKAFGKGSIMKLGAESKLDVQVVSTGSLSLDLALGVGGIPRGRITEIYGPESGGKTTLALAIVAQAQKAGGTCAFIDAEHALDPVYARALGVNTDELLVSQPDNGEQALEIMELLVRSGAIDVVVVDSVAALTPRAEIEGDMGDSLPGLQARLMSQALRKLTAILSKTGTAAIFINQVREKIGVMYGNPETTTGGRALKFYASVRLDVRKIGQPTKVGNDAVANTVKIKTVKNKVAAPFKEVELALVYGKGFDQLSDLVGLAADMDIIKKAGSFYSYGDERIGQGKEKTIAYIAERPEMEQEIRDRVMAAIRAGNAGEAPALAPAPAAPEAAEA

DrRecA = molecular target: T2, DrRecA (Deinococcus radiodurans R1 (ATCC 13939), UniProt P42443 1-363); assay: EMSA; no PprA; DrRecA 0.5-2 ug; EMSA: 0.2 pmol 32P probe in 10 ul, 10 mM Tris-HCl pH 7.5, 50 mM NaCl, 1 mM DTT, 10 min, 37 C; 12.5% native PAGE; details: protein: recombinant, tags: His-tag removed with Factor Xa (pET28a), label: 32P (polynucleotide kinase, 5' end)
T2 sequence: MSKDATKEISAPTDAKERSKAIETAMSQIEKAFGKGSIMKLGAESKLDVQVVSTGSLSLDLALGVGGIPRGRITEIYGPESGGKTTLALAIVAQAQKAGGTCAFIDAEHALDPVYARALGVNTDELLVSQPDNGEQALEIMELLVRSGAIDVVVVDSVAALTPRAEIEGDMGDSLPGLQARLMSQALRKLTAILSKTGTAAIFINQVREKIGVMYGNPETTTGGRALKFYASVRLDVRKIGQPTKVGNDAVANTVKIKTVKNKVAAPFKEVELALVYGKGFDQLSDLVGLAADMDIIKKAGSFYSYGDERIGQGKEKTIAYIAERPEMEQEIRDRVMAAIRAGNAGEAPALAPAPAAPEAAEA

PprA [2] = molecular target: T3, PprA (Deinococcus radiodurans R1 (ATCC 13939), UniProt O32504 1-300); assay: EMSA; PprA 2 ug; EMSA: 0.2 pmol 32P probe in 10 ul, 10 mM Tris-HCl pH 7.5, 50 mM NaCl, 1 mM DTT, 10 min, 37 C; 12.5% native PAGE; details: protein: recombinant; tags: His-tag removed with Factor Xa (pET28a); label: 32P (polynucleotide kinase, 5' end)
T3 sequence: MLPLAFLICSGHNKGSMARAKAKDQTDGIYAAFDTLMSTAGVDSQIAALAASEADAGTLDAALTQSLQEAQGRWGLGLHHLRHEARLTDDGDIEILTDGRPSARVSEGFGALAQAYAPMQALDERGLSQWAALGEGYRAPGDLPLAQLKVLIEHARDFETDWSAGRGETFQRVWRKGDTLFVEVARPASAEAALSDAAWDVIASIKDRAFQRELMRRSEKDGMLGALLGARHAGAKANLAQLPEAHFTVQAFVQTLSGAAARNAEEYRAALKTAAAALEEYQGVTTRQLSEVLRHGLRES

PprA [3] = molecular target: T3, PprA; assay: EMSA; PprA 2 ug; band distinct from DrRecA-DNA; EMSA: 0.2 pmol 32P probe in 10 ul, 10 mM Tris-HCl pH 7.5, 50 mM NaCl, 1 mM DTT, 10 min, 37 C; 12.5% native PAGE; details: protein: recombinant; tags: His-tag removed with Factor Xa (pET28a); label: 32P (polynucleotide kinase, 5' end); blunt

B1: Recombinant PprA, wild type, purified (natural protein, D. radiodurans, UniProt O32504 1-300, looked up)
chain: MLPLAFLICSGHNKGSMARAKAKDQTDGIYAAFDTLMSTAGVDSQIAALAASEADAGTLDAALTQSLQEAQGRWGLGLHHLRHEARLTDDGDIEILTDGRPSARVSEGFGALAQAYAPMQALDERGLSQWAALGEGYRAPGDLPLAQLKVLIEHARDFETDWSAGRGETFQRVWRKGDTLFVEVARPASAEAALSDAAWDVIASIKDRAFQRELMRRSEKDGMLGALLGARHAGAKANLAQLPEAHFTVQAFVQTLSGAAARNAEEYRAALKTAAAALEEYQGVTTRQLSEVLRHGLRES
notes: PprA of Deinococcus radiodurans, from plasmid pETpprA constructed earlier (Rajpurohit and Misra, 2013); His tag removed with Factor-Xa; also called PprA^wt; pETpprA; source: E. coli BL21(DE3) pLysS, purified (Ni-chelating Sepharose, Q-sepharose, Heparin, Superdex-200)
binding result [1]: binds

B2: PprA R166A mutant (natural protein, D. radiodurans, UniProt O32504 1-300, looked up)
chain: MLPLAFLICSGHNKGSMARAKAKDQTDGIYAAFDTLMSTAGVDSQIAALAASEADAGTLDAALTQSLQEAQGRWGLGLHHLRHEARLTDDGDIEILTDGRPSARVSEGFGALAQAYAPMQALDERGLSQWAALGEGYRAPGDLPLAQLKVLIEHARDFETDWSAGAGETFQRVWRKGDTLFVEVARPASAEAALSDAAWDVIASIKDRAFQRELMRRSEKDGMLGALLGARHAGAKANLAQLPEAHFTVQAFVQTLSGAAARNAEEYRAALKTAAAALEEYQGVTTRQLSEVLRHGLRES
notes: PprA of Deinococcus radiodurans with R166A, made with a site-directed mutagenesis kit
binding result [1]: binds

B3: PprA R212A mutant (natural protein, D. radiodurans, UniProt O32504 1-300, looked up)
chain: MLPLAFLICSGHNKGSMARAKAKDQTDGIYAAFDTLMSTAGVDSQIAALAASEADAGTLDAALTQSLQEAQGRWGLGLHHLRHEARLTDDGDIEILTDGRPSARVSEGFGALAQAYAPMQALDERGLSQWAALGEGYRAPGDLPLAQLKVLIEHARDFETDWSAGRGETFQRVWRKGDTLFVEVARPASAEAALSDAAWDVIASIKDRAFQAELMRRSEKDGMLGALLGARHAGAKANLAQLPEAHFTVQAFVQTLSGAAARNAEEYRAALKTAAAALEEYQGVTTRQLSEVLRHGLRES
notes: PprA of Deinococcus radiodurans with R212A, made with a site-directed mutagenesis kit; also called oligomer mutant
binding result [1]: binds

B4: Oligo40-F 40-mer ssDNA (ssDNA)
DNA: TAATACAAAATAAGTAAATGAATAAACAGAGAAAATAAAG
binding result (DrRecA): binds | binding result (PprA [2]): no binding

B5: Oligo40-F/Oligo40-R 40-mer dsDNA (dsDNA)
DNA 1: TAATACAAAATAAGTAAATGAATAAACAGAGAAAATAAAG
DNA 2: CTTTATTTTCTCTGTTTATTCATTTACTTATTTTGTATTA
binding result (DrRecA; blunt): binds | binding result (PprA [3]): binds
